The target in this experiment is T1, human c-Met/Fc fusion protein (R&D Systems) (human, UniProt P08581 25-932).
T1 construct: Bought reagent; also called human c-Met/Fc protein; not shown: Fc part of the bought fusion
Nature of the experiment: ELISA, human c-Met/Fc fusion protein coated at 2 µg/mL, hybridoma culture, anti-mouse IgG-HRP. As to the method: Human c-Met/Fc fusion protein was seeded in an amount of 50 μL (2 μg/mL)/well to microtiter plates and allowed to adhere to the surface of each well. The antibody that remained unbound was removed by washing.
The hybridoma cell culture obtained in Reference Example 1.1.2 was added in an amount of 50 μL to each well of the plates and incubated for 1 hour. The cells remaining unreacted were washed out with a sufficient amount of Tris-buffered saline and Tween 20 (TBST). Goat anti-mouse IgG-horseradish peroxidase (HRP) was added to the plates and incubated for 1 hour at room temperature. The plates were washed with a sufficient amount of TBST, followed by reacting the peroxidase with a substrate (OPD). Absorbance at 450 nm was measured on an ELISA reader.
A general note: ELISA stands for enzyme-linked immunosorbent assay.

T1 sequence (P08581 25-932 limits assumed): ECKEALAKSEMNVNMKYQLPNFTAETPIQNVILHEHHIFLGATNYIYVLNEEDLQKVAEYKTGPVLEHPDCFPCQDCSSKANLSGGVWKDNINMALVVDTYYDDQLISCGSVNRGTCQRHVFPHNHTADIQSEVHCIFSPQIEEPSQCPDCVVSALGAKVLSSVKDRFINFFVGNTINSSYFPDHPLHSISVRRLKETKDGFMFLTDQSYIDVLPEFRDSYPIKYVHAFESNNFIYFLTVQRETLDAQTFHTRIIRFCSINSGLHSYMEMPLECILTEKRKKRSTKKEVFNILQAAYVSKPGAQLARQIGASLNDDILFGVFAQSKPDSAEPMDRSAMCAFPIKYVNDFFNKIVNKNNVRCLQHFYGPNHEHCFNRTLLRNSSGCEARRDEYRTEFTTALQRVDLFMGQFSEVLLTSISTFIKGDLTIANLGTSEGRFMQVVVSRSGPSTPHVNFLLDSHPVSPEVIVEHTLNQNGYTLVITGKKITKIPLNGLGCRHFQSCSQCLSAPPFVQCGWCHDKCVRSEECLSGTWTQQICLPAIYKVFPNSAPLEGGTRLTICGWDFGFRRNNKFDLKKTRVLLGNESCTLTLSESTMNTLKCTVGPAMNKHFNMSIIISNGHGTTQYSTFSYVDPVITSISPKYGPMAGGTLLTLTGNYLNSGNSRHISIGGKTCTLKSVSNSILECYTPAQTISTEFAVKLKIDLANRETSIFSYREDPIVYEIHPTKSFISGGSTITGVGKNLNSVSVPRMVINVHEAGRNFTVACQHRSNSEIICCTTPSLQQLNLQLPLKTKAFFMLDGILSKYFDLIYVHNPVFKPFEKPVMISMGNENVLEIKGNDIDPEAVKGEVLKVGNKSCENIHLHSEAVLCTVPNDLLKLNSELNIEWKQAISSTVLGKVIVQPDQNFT

B1: AbF46, mouse monoclonal antibody to c-Met (hybridoma KCLRF-BP-00220) (antibody, V domains shown)
VH: EVKLVESGGGLVQPGGSLRLSCATSGFTFTDYYMSWVRQPPGKALEWLGFIRNKANGYTTEYSASVKGRFTISRDNSQSILYLQMDTLRAEDSATYYCARDNWFAYWGQGTLVTVSA
VL: DILMTQSPSSLTVSAGEKVTMSCKSSQSLLASGNQNNYLAWHQQKPGRSPKMLIIWASTRVSGVPDRFIGSGSGTDFTLTINSVQAEDLAVYYCQQSYSAPLTFGAGTKLELK
notes: Tested as hybridoma culture supernatant in the screening ELISA; also called mouse antibody AbF46
On to B1, for which the binding result is “binds”.

For the origin of these results see patent publication US20150197542A1 (SAMSUNG ELECTRONICS, published 2015).
